Columns and labels:
[1] = target: HLA-A*26:01; assay: IEDB peptide-MHC binding, purified MHC/competitive/radioactivity; filed as Kd, often an IC50 or EC50 that approximates it; ≥ and ≤ were set here for values at or beyond the usual limits of such assays; conditions: source organism: Dengue virus 2 Jamaica/1409/1983
[2] = target: HLA-A*68:02; assay: as above
[3] = target: HLA-A*30:01; assay: as above; conditions: source organism: Vaccinia virus WR
[4] = target: HLA-A*32:01; assay: as above; conditions: source organism: Vaccinia virus WR
[5] = target: HLA-B*08:01; assay: as above; conditions: source organism: Vaccinia virus WR
[6] = target: HLA-B*15:01; assay: as above; conditions: source organism: Vaccinia virus WR
[7] = target: HLA-B*15:03; assay: as above; conditions: source organism: Vaccinia virus WR
[8] = target: HLA-B*57:01; assay: as above
[9] = target: HLA-A*03:01; assay: IEDB peptide-MHC binding, purified MHC/competitive/fluorescence; ≥ and ≤ were set here for values at or beyond the usual limits of such assays
[10] = target: HLA-A*11:01; assay: as above
[11] = target: HLA-B*15:01; assay: as above
[12] = target: HLA-A*02:02; assay: IEDB peptide-MHC binding, purified MHC/competitive/radioactivity; filed as Kd, often an IC50 or EC50 that approximates it; ≥ and ≤ were set here for values at or beyond the usual limits of such assays
[13] = target: HLA-A*02:03; assay: as above
[14] = target: HLA-A*02:06; assay: as above
[15] = target: HLA-A*02:01; assay: as above
[16] = target: HLA-A*02:01; assay: IEDB peptide-MHC binding, purified MHC/competitive/fluorescence; filed as Kd, often an IC50 or EC50 that approximates it; ≥ and ≤ were set here for values at or beyond the usual limits of such assays; conditions: source organism: Homo sapiens
[17] = target: HLA-A*02:03; assay: as above; conditions: source organism: Homo sapiens
[18] = target: HLA-A*69:01; assay: as above; conditions: source organism: Homo sapiens
[19] = target: HLA-A*33:01; assay: IEDB peptide-MHC binding, purified MHC/competitive/radioactivity; filed as Kd, often an IC50 or EC50 that approximates it; ≥ and ≤ were set here for values at or beyond the usual limits of such assays; conditions: source organism: Vaccinia virus WR
[20] = target: HLA-B*07:02; assay: as above; conditions: source organism: Vaccinia virus WR
[21] = target: HLA-B*35:01; assay: as above; conditions: source organism: Vaccinia virus WR
[22] = target: HLA-B*51:01; assay: as above
[23] = target: HLA-B*53:01; assay: as above; conditions: source organism: Vaccinia virus WR
[24] = target: HLA-B*54:01; assay: as above; conditions: source organism: Vaccinia virus WR
[25] = target: HLA-A*02:01; assay: IEDB peptide-MHC binding, purified MHC/competitive/fluorescence; ≥ and ≤ were set here for values at or beyond the usual limits of such assays
[26] = target: HLA-A*03:01; assay: IEDB peptide-MHC binding, purified MHC/competitive/radioactivity; filed as Kd, often an IC50 or EC50 that approximates it; ≥ and ≤ were set here for values at or beyond the usual limits of such assays; conditions: source organism: Vaccinia virus WR
[27] = target: HLA-A*11:01; assay: as above; conditions: source organism: Vaccinia virus WR
[28] = target: HLA-A*31:01; assay: as above; conditions: source organism: Vaccinia virus WR
[29] = target: HLA-A*68:01; assay: as above; conditions: source organism: Vaccinia virus WR
[30] = target: HLA-A*24:02; assay: IEDB peptide-MHC binding, purified MHC/competitive/fluorescence; ≥ and ≤ were set here for values at or beyond the usual limits of such assays
[31] = source organism: Dengue virus 2 Jamaica/1409/1983
[32] = source organism: Dengue virus 1 Brazil/97-11/1997
[33] = source organism: Dengue virus 3 Martinique/1243/1999
[34] = source organism: Vaccinia virus WR
[35] = source organism: Mammarenavirus brazilense
[36] = source organism: Zaire ebolavirus
[37] = source organism: Sudan ebolavirus
[38] = source organism: Vaccinia virus
[39] = source organism: Trypanosoma cruzi
[40] = source organism: Dengue virus 4 Dominica/814669/1981
[41] = source organism: Vaccinia virus Copenhagen

EIVDLMCHA
Kd [1]: 1580 nM
Kd [2, 31]: 44 nM

KTIYAVDSF
Kd [3]: 1390 nM
Kd [4]: 6.78 nM
Kd [5]: ≥ 31900 nM
Kd [6]: 4.04 nM
Kd [7]: 321 nM

ETVSEESNV
Kd ([2]; source organism: Homo sapiens): 44 nM

FIAFLRFLA
Kd [2, 32]: ≤ 1 nM

TTRMENLLW
Kd [8, 33]: 5.23 nM

SLPRIALVR
IC50 ([9]; source organism: Variola virus): 781 nM
IC50 ([10]; source organism: Variola virus): 408 nM

KNKLYLVDY
IC50 [11, 34]: 34200 nM

AINIALIAV
Kd [12, 35]: 766 nM
Kd [13, 35]: 46.7 nM
Kd [14, 35]: 681 nM
Kd [2, 35]: 1300 nM

ALKTELEDTL
Kd ([2]; source organism: Homo sapiens): ≥ 60000 nM

GERYYFAYI
Kd [3]: 6620 nM
Kd [4]: 19500 nM
Kd [5]: 6.86 nM
Kd [6]: 673 nM
Kd [7]: 238 nM

MILVPLITV
Kd ([15]; source organism: Variola virus): 14.6 nM
Kd ([12]; source organism: Variola virus): 138 nM
Kd ([13]; source organism: Variola virus): 29.6 nM
Kd ([14]; source organism: Variola virus): 2.55 nM
Kd ([2]; source organism: Variola virus): 0.278 nM

HGFRFEVKK
IC50 [9, 36]: 2200 nM
IC50 [10, 36]: 86.5 nM

ILHHHRNVF
Kd [5]: 13 nM
Kd [7]: 1.33 nM

IRVEGNLRV
Kd [16]: ≥ 20000 nM
Kd [17]: ≥ 20000 nM
Kd [18]: ≥ 20000 nM

LLTACTIFYI
Kd [12, 34]: 2.72 nM
Kd [13, 34]: 11.8 nM
Kd [14, 34]: 55.8 nM
Kd [19]: 7390 nM
Kd [2, 34]: 229 nM
Kd [20]: ≥ 69600 nM
Kd [21]: ≥ 69900 nM
Kd [22, 34]: ≥ 69600 nM
Kd [23]: ≥ 22100 nM
Kd [24]: ≥ 27600 nM

TTSQKTTWLP
Kd [8, 32]: 446 nM

QTNTKATGK
IC50 [9, 37]: 14000 nM
IC50 [10, 37]: 2180 nM

MMIQTRAAD
IC50 [25, 38]: ≥ 104000 nM
IC50 [11, 38]: ≥ 77200 nM

SQGREAAVS
IC50 [11, 36]: 26900 nM

EVVMAYVGIK
Kd [15, 34]: 4000 nM
Kd [12, 34]: 12000 nM
Kd [13, 34]: 15900 nM
Kd [14, 34]: 15000 nM
Kd [26]: 413 nM
Kd [27]: 97.7 nM
Kd [28]: 786 nM
Kd [19]: 1170 nM
Kd [29]: 6.68 nM
Kd [2, 34]: 2580 nM
Kd [20]: 9980 nM
Kd [21]: ≥ 23300 nM
Kd [22, 34]: ≥ 23200 nM
Kd [23]: 6770 nM
Kd [24]: 7930 nM

VVRLLTKPW
Kd [8, 31]: 27.9 nM

FASGRKSITL
Kd ([8]; source organism: Dengue virus 4 Philippines/H241/1956): 6170 nM

KFMAILQHH
IC50 [9, 36]: ≥ 301000 nM
IC50 [30, 36]: 16600 nM
IC50 [11, 36]: ≥ 327000 nM

TIIGTNGNH
IC50 [11, 37]: ≥ 150000 nM

RSLIIVLLF
Kd [3]: 2350 nM
Kd [4]: 299 nM
Kd [5]: 959 nM
Kd [6]: 194 nM
Kd [7]: 225 nM

GLLLLLLLLG
Kd [15, 39]: 171 nM
Kd [12, 39]: 456 nM
Kd [13, 39]: 330 nM
Kd [14, 39]: 420 nM
Kd [2, 39]: 1790 nM

GTSGSPIVNR
Kd [8, 32]: 104 nM

SQIPSSSPT
IC50 [25, 37]: 30000 nM
IC50 [11, 37]: 8510 nM

NMFNISFRF
Kd [3]: 27.2 nM
Kd [4]: 3.6 nM
Kd [5]: 1540 nM
Kd [6]: 43.4 nM
Kd [7]: 18.5 nM

MIRILIGFLV
Kd [2, 40]: 295 nM

IALGVATAH
IC50 [25, 36]: ≥ 223000 nM
IC50 [9, 36]: ≥ 160000 nM
IC50 [10, 36]: 10800 nM
IC50 [11, 36]: 61100 nM

FFKQTFGSL
Kd [3]: 497 nM
Kd [4]: ≥ 55800 nM
Kd [5]: 0.735 nM
Kd [6]: 1560 nM
Kd [7]: 1080 nM

TYTILNRKA
IC50 [9, 37]: ≥ 94900 nM
IC50 [10, 37]: ≥ 90000 nM
IC50 [30, 37]: 22100 nM

TTRLENVMW
Kd [8, 40]: 14.6 nM

FVYVPELSF
Kd [6]: 0.963 nM
Kd [7]: 203 nM

LMLCLHHAY
IC50 [25, 36]: 38100 nM
IC50 [11, 36]: 22300 nM

FIMLEGETK
IC50 [25, 41]: 30700 nM
IC50 [9, 41]: ≥ 116000 nM
IC50 [10, 41]: 4880 nM
Kd [28]: 17800 nM
Kd [19]: 4410 nM
Kd [29]: 28.1 nM

NTFVLKKEV
Kd [2, 33]: 80.9 nM

MAISGDDCV
Kd [2, 31]: 65.8 nM
Kd [22, 31]: 17400 nM

RKYSDLVPK
IC50 [9, 37]: 49100 nM
IC50 [10, 37]: 4130 nM

SSYYATSYL
IC50 [25, 37]: 3160 nM
IC50 [9, 37]: 18500 nM
IC50 [10, 37]: 2700 nM
IC50 [30, 37]: 955 nM
IC50 [11, 37]: 24200 nM

ITKGRISDR
IC50 [9, 37]: 66300 nM
IC50 [10, 37]: ≥ 135000 nM
